Tests used:
Jurkat cells = assay: Homotypic aggregation of Jurkat T cells activated with anti-CD3; format: cell-based, human; conditions: pretreatment 30 min before activation with anti-CD3
Procedure: When Jurkat cells (5×10^5 cells/ml) were incubated with anti-CD3 monoclonal antibody (OKT3: 10 μg/ml, BD Pharmingen) at 4° C. for 20 min and then with anti-mouse immunoglobulin polyclonal antibody (25 μg/ml, Zymed) 37° C. for 1 hr, cell aggregation occurred, and the cells were activated and induced to produce interleukin-2 (IL-2) (FIGS. 10 and 11). According to the same method, when green fluorescent protein (GFP) overexpression was induced, there was no effect. In contrast, when Jurkat cells were transfected with a Bst2-overexpressing vector and were induced to activate, homotypic cell aggregation increased (FIG. 10, panel A). IL-2 mRNA levels upon T cell activation were measured by real-time RT-PCR (Example 3). IL-2 mRNA expression was elevated by about two times under Bst2 overexpression in comparison with GFP overexpression (FIG. 10, panel B).
Jurkat cells were pretreated with a Bst2 decoy 30 min before activation, were activated using anti-CD3 monoclonal antibody, and were evaluated for inhibition of cell aggregation. The cells were treated with a relative amount of serial dilutions of an animal cell culture fluid containing a Bst2 decoy. The size of aggregates was represented as a ratio to the size of aggregates of a non-treatment group.

IL-4, IL-5 and IL-13 = assay: Ovalbumin-induced mouse model of asthma: cytokines in lung tissue (immunoblot); format: in vivo; conditions: ovalbumin-sensitized asthmatic mice
Procedure: A mouse model of asthma was prepared by sensitizing mice (C57B6, 8 weeks) with ovalbumin. In detail, mice were initially sensitized for five continuous days by intranasal injection of ovalbumin. After three weeks, mice were intranasally sensitized again with ovalbumin for five continuous days. One week after the secondary sensitization, mice were challenged intranasally with ovalbumin three times every 24 hrs to induce asthma. Herein, a Bst2 decoy was intravenously injected into mice 30 min before sensitization with ovalbumin, and was injected into mice 30 min before the first sensitization and the last injection of ovalbumin. Three days after the last injection, serum samples, lung tissues, and the like were collected from mice.
When a Bst2 or Damp1 decoy was injected into a mouse model of asthma which was induced by sensitization and challenge with ovalbumin, expression levels of cytokines (interleukin-4 (IL-4), interleukin-5 (IL-5) and interleukin-13 (IL-13)) were measured as follows. […] The bound primary antibodies were detected with a HRP-conjugated secondary antibody (anti-rabbit HRP-conjugated IgG) using ECL reagent.
Expression of 11-4, IL-5 and IL-13 was measured in the murine asthma model as described in Example 8-3 after injection with Bst2 decoy or Bst2 decoy Fc fusion proteins.

U937 cells [1] = assay: Homotypic aggregation of U937 cells induced by PMA and LPS; format: cell-based, human; conditions: decoy medium from CHO-S cells, in comparison with control medium
Procedure: Expression levels of Bst2 protein were examined during aggregation of human U937 monocytic cells. […] To determine the degree of cell aggregation, the size of formed cell aggregates was measured as pixel intensity, using Adobe's Photoshop software, version 7.0. The standard deviation values shown in drawings were calculated from mean values of six randomly selected aggregates. Thereafter, all used cells were recovered, and total RNA was isolated and subjected to RT-PCR using a set of primers of SEQ ID NOS:3 and 4 to assess Bst2 expression levels.
1×10^6 U937 cells, which had been cultured under the aforementioned conditions, were seeded onto a 96-well cell culture plate (NUNC) and treated with PMA (2 ng/ml, Calbiochem) and LPS (10 μg/ml, Calbiochem) for 24 hrs. The cells were then observed for the degree of homotypic cell aggregation under a phase-contrast inverted microscope (Olympus 1X71, state, USA).
U937 cells were pretreated with PMA and LPS to induce cell aggregation, and were treated with serial dilutions of medium (decoy medium) containing a Bst2 decoy transiently expressed in CHO-S cells.

U937 cells [2] = assay: Direct binding of U937 cells to Bst2 decoy-coated plates; design: species or system human; conditions: Bst2 decoy-coated wells vs BSA
Procedure: Flat-bottomed 96-well plates were coated with Bst2 decoy with sodium bicarbonate (100 mM, pH 9.5) for 2 hrs at 37° C. The plates were washed with PBS (pH 7.4) and incubated with 1% bovine serum albumin (BSA) at 25° C. After a rinse with PBS (pH 7.4) containing 1 mM CaCl2 and 0.5 mM MgCl2, U937 cells (1×10^6/ml) were added to each dBst2-coated well. After 2 hrs of incubation at 37° C., unbound cells were removed by two gentle washes with RPMI1640 media (Gibco-BRL) and bound cells were fixed with 2% paraformaldehyde for 20 minutes, washed, and stained with 0.5% crystal violet. After 30 minutes at 25° C., the plates were washed with PBS and bound cells were counted.

CLP sepsis = CLP sepsis model: tissue and organ damage; format: in vivo, rat
Excerpt: A rat model of sepsis was induced through cecal ligation and puncture (CLP) as described previously (Wichterman K A, Baue A E, Chaudry I H: Sepsis and septic shock-a review of laboratory models and a proposal. J Surg Res 29:189-201, 1980). An incision was made along the midline of the abdomen on an anesthetized animal. The cecum was exteriorized, ligated and punctured with a stainless steel needle. An appropriate amount of fecal matter was then extruded. The gauge of the needle, number of punctures and amount of fecal matter extruded are all factors in determining the severity of sepsis and mortality. […] The incision was sutured and appropriate post-operative care was administered. Sham-operated animals were subjected to similar laparotomy and intestinal manipulation, however, the cecum was neither ligated nor punctured. Immediately or 6 hours after the CLP procedure, animals were given intravenous injection of vehicle or a Bst2 decoy.
Blood enzyme levels were measured at 6, 12, and 24 hours post-CLP (FIG. 49A-49D). Organ damage, as indicated by increased levels of alanine aminotransferase (ALT), aspartate aminotransferase (AST), blood urea nitrogen (BUN) and creatinine, was evident in all animals that underwent the CLP procedure.

[3] = tested on: TNCB-induced contact hypersensitivity; assay: TNCB-induced contact hypersensitivity in mice; format: in vivo, Balb/c mice
Procedure: To evaluate efficacy of Bst2 decoy on allergic dermatitis, contact hypersensitivity was induced by repeated application of 2,4,6-trinitro-1-chlorobenzene (TNCB) in Balb/c mice. The mice were initially sensitized with 0.2 ml of 1% TNCB solution on day 0, Subsequent challenges of 0.2 ml of 0.2% TNCB solution was applied to the shaved backs of the animals 2-3 times per week from week 2 to week 6. By the end of week 6, all animal developed lesions on the dorsal skin treated with TNCB solution (FIGS. 40A-40C).
During week 7, 5 daily doses of Bst2 decoy were administered at 10 mg/kg to the animals by intravenous injection, and the animals were sacrificed for observation at the end of week 7.
H&E staining was performed on exposed skin sections.

B1: Bst2 decoy: soluble Bst2 protein fragment having the amino acid sequence of SEQ ID NO:1; extracellular region of human Bst2, six-histidine tag (protein)
chain: NSEACRDGLRAVMECRNVTHLLQQELTEAQKGFQDVEAQAATCNHTVMALMASLDAEKAQGQKKVEELEGEITTLNHKLQDASAEVERLRRENQVLSVRIADKKYYPSSQDHHHHHH
aggregation of Jurkat cells (Jurkat cells): significant decrease
cytokine levels (IL-4, IL-5, IL-13) in lung tissue (IL-4, IL-5 and IL-13): decreased with increasing doses
decrease of U937 cell aggregation induced by PMA and LPS (U937 cells [1]): 50%
attachment of U937 cells to coated wells (U937 cells [2]): attached
blood levels of ALT, AST, BUN and creatinine (CLP sepsis; 6, 12 and 24 hours post-CLP): near-normal level
H&E staining of liver, kidney and lung sections (CLP sepsis; 24 post-CLP): protective effects against organ damage
recovery from TNCB-induced skin lesions ([3]; 10 mg/kg intravenous, 5 daily doses during week 7, vs vehicle alone): recovered much quicker
H&E staining of exposed skin sections ([3]; TNCB-treated mice): near-normal morphology with little signs of inflammation

From patent publication US8329186B2, “Treatment of inflammation using BST2 inhibitor” (Isu Abxis Co., Ltd, priority 2004, dated 2012)
